Consider six compounds from publication PMC11293645, “The two-component system TtrRS boosts Vibrio parahaemolyticus colonization by exploiting sulfur compounds in host gut” (PLOS Pathogens, 2024).

Data set [1] deals with T1, TtrBCA (Vibrio parahaemolyticus, UniProt Q87N61).
T1 construct: gene VP2014; native complex in V. parahaemolyticus cells; wild type, ttrA deletion and pBAD24-complemented strains; with Tetrathionate reductase subunit B; Tetrathionate reductase subunit C
As to the kind of experiment: HPLC of cultures, wild type vs deletion and complemented strains. Format: cell-based. As to conditions: M9 medium, 10 mM sodium tetrathionate, micro-aerobic, 37 °C; whole-cell cultures; reduction to thiosulfate.

Data set [2] addresses T2, TtrR (09830, response regulator) (UniProt Q87N66).
T2 sequence: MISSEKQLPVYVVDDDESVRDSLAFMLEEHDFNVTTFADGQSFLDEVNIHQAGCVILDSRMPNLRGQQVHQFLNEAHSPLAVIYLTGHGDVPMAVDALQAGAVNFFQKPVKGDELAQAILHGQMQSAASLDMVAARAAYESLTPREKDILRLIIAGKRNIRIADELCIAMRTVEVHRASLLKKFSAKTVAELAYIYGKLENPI
As to the kind of experiment: EMSA. A general note: A gel shift assay detects complexes by their altered migration in electrophoresis.

T1 sequence (Q87N62 entry or part of it): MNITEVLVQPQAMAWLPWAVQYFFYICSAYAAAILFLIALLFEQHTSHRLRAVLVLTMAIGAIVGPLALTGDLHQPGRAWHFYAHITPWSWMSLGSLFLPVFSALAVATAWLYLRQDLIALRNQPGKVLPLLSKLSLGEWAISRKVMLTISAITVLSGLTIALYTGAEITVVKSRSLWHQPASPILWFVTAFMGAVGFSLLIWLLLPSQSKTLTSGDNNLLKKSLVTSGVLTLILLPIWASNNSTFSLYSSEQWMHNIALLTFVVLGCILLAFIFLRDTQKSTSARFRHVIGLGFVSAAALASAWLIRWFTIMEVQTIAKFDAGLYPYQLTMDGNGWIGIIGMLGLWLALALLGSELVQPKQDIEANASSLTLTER
T1 sequence (Q87N63 entry or part of it, further chain): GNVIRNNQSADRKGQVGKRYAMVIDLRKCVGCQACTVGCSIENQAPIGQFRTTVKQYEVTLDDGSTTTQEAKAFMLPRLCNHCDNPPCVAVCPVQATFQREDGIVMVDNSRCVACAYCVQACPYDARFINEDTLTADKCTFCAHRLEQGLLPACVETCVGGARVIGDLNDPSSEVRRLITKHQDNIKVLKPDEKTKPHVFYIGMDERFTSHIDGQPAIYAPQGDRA
T1 sequence (Q87N61 entry or part of it): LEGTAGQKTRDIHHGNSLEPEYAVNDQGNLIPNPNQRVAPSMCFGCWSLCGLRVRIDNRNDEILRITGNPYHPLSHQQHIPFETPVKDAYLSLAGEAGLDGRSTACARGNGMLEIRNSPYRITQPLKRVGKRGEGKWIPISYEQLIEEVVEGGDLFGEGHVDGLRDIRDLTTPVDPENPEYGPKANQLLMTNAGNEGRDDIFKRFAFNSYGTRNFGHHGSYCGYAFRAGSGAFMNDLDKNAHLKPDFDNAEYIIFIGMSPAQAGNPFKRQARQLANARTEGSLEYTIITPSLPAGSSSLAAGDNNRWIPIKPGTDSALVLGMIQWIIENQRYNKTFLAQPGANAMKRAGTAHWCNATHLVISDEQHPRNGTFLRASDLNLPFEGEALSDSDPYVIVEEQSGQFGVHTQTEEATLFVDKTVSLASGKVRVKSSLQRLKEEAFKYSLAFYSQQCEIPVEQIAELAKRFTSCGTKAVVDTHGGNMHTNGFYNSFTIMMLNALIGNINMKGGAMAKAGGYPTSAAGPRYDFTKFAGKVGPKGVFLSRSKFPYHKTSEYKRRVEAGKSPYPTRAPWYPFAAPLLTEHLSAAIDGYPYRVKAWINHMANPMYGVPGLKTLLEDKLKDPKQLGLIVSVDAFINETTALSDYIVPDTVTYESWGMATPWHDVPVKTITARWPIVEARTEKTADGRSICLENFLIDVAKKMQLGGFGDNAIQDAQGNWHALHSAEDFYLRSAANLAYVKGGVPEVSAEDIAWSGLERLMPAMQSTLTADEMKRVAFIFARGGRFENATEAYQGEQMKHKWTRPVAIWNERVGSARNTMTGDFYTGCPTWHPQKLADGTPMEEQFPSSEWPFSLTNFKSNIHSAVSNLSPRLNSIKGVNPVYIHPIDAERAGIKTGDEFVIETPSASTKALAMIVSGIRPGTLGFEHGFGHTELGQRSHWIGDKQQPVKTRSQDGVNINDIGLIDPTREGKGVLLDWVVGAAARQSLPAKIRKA

Turning to `O=S(=O)(O)SSS(=O)(=O)O` [tetrathionate], the “HPLC of cultures, wild type vs deletion and complemented strains” value in data set [1] is “confirming that ttrBCA is essential for tetrathionate reduction”.

In the case of “CAATACCTGCAATGGGGACCAACGCGGCACCCGCTGTAATGGCGCTAAGAAAGCGACGTTTGGTGGAATCCATAACTCACCTGCTGTTAGTTGAATTTGAACTGACTGATTCCATTGTGAGAAATGCGCTGCGACGTCGATATAGTGGATTTCCACATACCCAGATCAAAGTTGATCTAAAACAAATGTGGTTTACGGAAGGTAGCTGTTATTCTTGCTTCATTATTTTCGAAGGAACGATTCGACTCATC (double strand) [PttrS (ttrRS promoter)]”, the binding entry in data set [2] is listed as “binds”.

In the case of “CGCCCTGAGCTAAAGATGCAAAGACAACCAAGCACAGAATCCAAAACTGAAGCAACCGTGGCGTTTTGTTCATGATGAGTCGAATCGTTCCTTCGAAAATAATGAAGCAAGAATAACAGCTACCTTCCGTAAACCACATTTGTTTTAGATCAACTTTGATCTGGGTATGTGGAAATCCACTATATCGACGTCGCAGCGCATTTCTCACAATGGAATCAGTCAGTTCAAATTCAACTAACAGCAGGTGAGTT (double strand) [PttrB (ttrBCA promoter)]”, in data set [2], the binding result is recorded as “binds”.

Consider “CGCCCTGAGCTAAAGATGCAAAGACAACCAAGCACAGAATCCAAAACTGAAGCAACCGTGGCGTTTTGTTCATGATGAGTCGAATCGTTCCTTCGAAAATAATGAAGCAAGAATAACAGCTACCTTCCGTAAACCACATTTGTTTTAGATCAACTTTGATCTGGGTATTATATCGACGTCGCAGCGCATTTCTCACAATGGAATCAGTCAGTTCAAATTCAACTAACAGCAGGTGAGTT (double strand) [PttrB-Δbox]”, for which, in data set [2], the binding entry is on record as “no binding”.

Consider “GCTGACTCACTTTAATTGTTATTAATATCTCCAAGTGTCTACTGTGATAGTGACTTGGGTGCTGTATTGTCGGCTTTGTCAATAACTAAAGGTATTATATTTAGAGGATGTGAAGAGCTGCTAAATGGCAGCTCTTCAGGTTTGGTTGTCTACTAAGCTTTGCGGATTTTGGCTGGTAATGATTGGCGAGCAGCGGCTCCTACCACCCAATCTAACAACACGCCTTTCCCTTCTCGG (double strand) [PtsdB-Δbox]”, for which the binding result in data set [2] is “no binding”.

Consider “GCTGACTCACTTTAATTGTTATTAATATCTCCAAGTGTCTACTGTGATAGTGACTTGGGTGCTGTATTGTCGGCTTTGTCAATAACTAAAGGTATTGTGGATTTCCACATATTTAGAGGATGTGAAGAGCTGCTAAATGGCAGCTCTTCAGGTTTGGTTGTCTACTAAGCTTTGCGGATTTTGGCTGGTAATGATTGGCGAGCAGCGGCTCCTACCACCCAATCTAACAACACGCCTTTCCCTTCTCGG (double strand) [P09855 (PtsdB, tsdBA promoter)]”, for which the binding result in data set [2] is “binds”.
